Results published in the supplement of paper PMC6757056.
± gives the standard deviation of the averaged measurements.

B1: library; a variant is named by its letters at N, in order (parent)
chain: GCUGUCACCGGUGUAUUACCCUAGUGGUCGACCGGUCUGAUGAGUCUNNNNNNAGACGAAACAGC

What was measured:
hypoxanthine [1] = variants of: B1; experiment: FACS-Seq fitted mean relative fluorescence mCherry/BFP without ligand (log10 relative fluorescence); ligand: hypoxanthine (xanthine aptamer); higher = higher reporter protein expression; conditions: HEK293T, ligand present: no
Procedure, shortened: (§1)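 HEK293T libraries were made by lentiviral transduction with a ribozyme-switch mCherry reporter and an EF1α-BFP marker, enriched, and incubated with or without ligand for 48 h. Cells were sorted into 6 mCherry/BFP bins, and each bin's genomic DNA was PCR-amplified, barcoded and run on MiSeq. Fluorescence was derived by normal fitting of the bin counts. The fitted log10(mCherry/BFP) mean was scaled to five spiked-in control ribozymes.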

hypoxanthine [2] = variants of: B1; experiment: normalized RNA/DNA level with ligand (relative to sTRSVctl = 100) (log10 (% of sTRSVctl)); ligand: hypoxanthine (xanthine aptamer); higher = less ribozyme self-cleavage, higher mRNA level; conditions: ligand concentration (+) RNA-Seq: 5 mM, HEK293T, reporter: mCherry (pCS4076), ligand present: yes
Procedure, shortened: (§2)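 For each 6-well well, 4 µg of library plasmid encoding mCherry-linked ribozyme switches, or eGFP-linked ones in some ligand experiments, was transfected into HEK293T. Any ligand was added 1 h before transfection, and RNA was extracted with EDTA 72 h after it, then reverse-transcribed, amplified, barcoded and sequenced. RNA level was obtained by dividing RNA reads by DNA reads, normalizing to a spiked-in non-cleaving sequence or to the top sequences, then scaling and log-transforming. The top set was 25 sequences, scaling was ×100 with log10, and ≥100 DNA reads were required.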

hypoxanthine [3] = variants of: B1; experiment: normalized RNA/DNA level without ligand (relative to sTRSVctl = 100) (log10 (% of sTRSVctl)); ligand: hypoxanthine (xanthine aptamer); higher = less ribozyme self-cleavage, higher mRNA level; conditions: HEK293T, reporter: mCherry (pCS4076), ligand present: no
Procedure, shortened: as §2

hypoxanthine [4] = variants of: B1; experiment: FACS-Seq fitted mean relative fluorescence mCherry/BFP with ligand (log10 relative fluorescence); ligand: hypoxanthine (xanthine aptamer); ligand concentration (+) FACS-Seq: 5 mM; higher = higher reporter protein expression; conditions: HEK293T, ligand present: yes
Procedure, shortened: as §1

Variant | FACS-Seq fitted mean (log10) (hypoxanthine [1]) | normalized RNA/DNA level with ligand (log10) (hypoxanthine [2]) | normalized RNA/DNA level without ligand (log10) (hypoxanthine [3]) | FACS-Seq fitted mean (log10) (hypoxanthine [4])
CGAAGA | 0.445 ± 0.018 | 1.97 ± 0.061 | 1.72 ± 0.049 | 0.65 ± 0.062
CGAAGG | 0.0138 ± 0.042 | 1.806 ± 0.015 | 1.4 ± 0.13 | 0.39 ± 0.041
UCUGAA | 0.338 ± 0.025 | 1.951 ± 0.0066 | 1.68 ± 0.04 | 0.512 ± 0.022
UCGGGA | 0.091 ± 0.059 | 1.82 ± 0.078 | 1.23 ± 0.021 | 0.767 ± 0.094
GCUGCG | 0.192 ± 0.0063 | 1.92 ± 0.057 | 1.6 ± 0.023 | 0.503 ± 0.0077
CCUACA | 0.617 ± 0.024 | 1.975 ± 0.01 | 1.9 ± 0.015 | 0.603 ± 0.01
ACUAUA | 0.701 ± 0.099 | 1.89 ± 0.039 | 1.823 ± 0.017 | 0.693 ± 0.019
UCUUUA | 0.261 ± 0.0068 | 1.958 ± 0.004 | 1.9 ± 0.085 | 0.327 ± 0.02
AGAAAA | 0.559 ± 0.023 | 1.89 ± 0.023 | 1.78 ± 0.048 | 0.133 ± 0.027
AGAAAU | 0.552 ± 0.024 | 1.93 ± 0.036 | 1.83 ± 0.034 | 0.414 ± 0.021
AGAAAC | 0.541 ± 0.013 | 1.93 ± 0.055 | 1.796 ± 0.01 | 0.58 ± 0.023
CCUGAG | 0.635 ± 0.045 | 1.918 ± 0.014 | 1.653 ± 0.0099 | 0.706 ± 0.046
CGAACC | 0.676 ± 0.041 | 1.94 ± 0.035 | 1.89 ± 0.02 | 0.635 ± 0.062
GCUUCG | 0.0523 ± 0.089 | 1.929 ± 0.006 | 1.59 ± 0.029 | 0.504 ± 0.069
GCGGUG | 0.212 ± 0.007 | 1.79 ± 0.053 | 1.41 ± 0.097 | 0.623 ± 0.019
GCGGUC | 0.327 ± 0.046 | 1.878 ± 0.015 | 1.5197 ± 0.00012 | 0.644 ± 0.063
GCGGUA | 0.439 ± 0.019 | 1.943 ± 0.0021 | 1.68 ± 0.036 | 0.677 ± 0.034
UGAAAC | -0.0117 ± 0.11 | 1.91 ± 0.027 | 1.81 ± 0.059 | 0.2594 ± 0.0017
CCUUGC | 0.165 ± 0.04 | 1.95 ± 0.082 | 1.86 ± 0.027 | -0.0481 ± 0.064
GCUAAC | 0.101 ± 0.032 | 1.93 ± 0.036 | 1.66 ± 0.036 | -0.141 ± 0.025
GCUAAU | 0.665 ± 0.11 | 1.93 ± 0.052 | 1.788 ± 0.012 | 0.7639 ± 0.0062
GCUAAG | -0.184 ± 0.019 | 1.838 ± 0.0086 | 1.421 ± 0.0074 | 0.199 ± 0.03
ACUAAU | 0.475 ± 0.018 | 1.92 ± 0.046 | 1.67 ± 0.058 | 0.628 ± 0.041
ACUAAA | 0.324 ± 0.083 | 1.897 ± 0.0002 | 1.76 ± 0.018 | 0.54 ± 0.027

Variant | FACS-Seq fitted mean (log10) (hypoxanthine [1]) | normalized RNA/DNA level with ligand (log10) (hypoxanthine [2]) | normalized RNA/DNA level without ligand (log10) (hypoxanthine [3]) | FACS-Seq fitted mean (log10) (hypoxanthine [4])
ACUAAC | -0.0807 ± 0.092 | 1.95 ± 0.057 | 1.8 ± 0.041 | 0.0498 ± 0.032
ACUAAG | -0.0198 ± 0.018 | 1.833 ± 0.017 | 1.5247 ± 0.0014 | 0.236 ± 0.15
GCUCUG | 0.3 ± 0.0076 | 1.89 ± 0.045 | 1.32 ± 0.05 | 0.685 ± 0.024
ACUGCG | 0.125 ± 0.0038 | 1.92 ± 0.03 | 1.458 ± 0.013 | 0.557 ± 0.019
ACUGCA | 0.637 ± 0.031 | 1.96 ± 0.028 | 1.83 ± 0.074 | 0.478 ± 0.012
GGAAGG | -0.0545 ± 0.055 | 1.81 ± 0.03 | 1.29 ± 0.068 | 0.241 ± 0.04
GGAAGA | 0.0989 ± 0.032 | 1.89 ± 0.045 | 1.45 ± 0.032 | 0.576 ± 0.039
GGAAGC | 0.167 ± 0.013 | 1.77 ± 0.033 | 1.297 ± 0.0033 | 0.358 ± 0.042
CCUAAA | 0.725 ± 0.1 | 1.95 ± 0.035 | 1.84 ± 0.019 | 0.615 ± 0.021
UCGUAG | 0.444 ± 0.042 | 1.88 ± 0.031 | 1.5605 ± 0.0013 | 0.642 ± 0.051
CCUAUA | 0.827 ± 0.019 | 1.945 ± 0.016 | 1.83 ± 0.029 | 0.508 ± 0.074
AGAACG | 0.48 ± 0.04 | 1.833 ± 0.015 | 1.436 ± 0.0026 | 0.756 ± 0.08
AGAACC | 0.228 ± 0.048 | 1.937 ± 0.014 | 1.87 ± 0.022 | 0.264 ± 0.055
UCUCUG | 0.0437 ± 0.023 | 1.77 ± 0.022 | 1.3 ± 0.032 | 0.522 ± 0.028
UCUCUA | 0.399 ± 0.023 | 1.94 ± 0.058 | 1.743 ± 0.0054 | 0.493 ± 0.055
GCGUGU | 0.0904 ± 0.007 | 1.84 ± 0.049 | 1.42 ± 0.039 | 0.45 ± 0.049
GCGUGA | 0.278 ± 0.054 | 1.82 ± 0.048 | 1.4 ± 0.017 | 0.618 ± 0.062
GCGUGG | 0.196 ± 0.064 | 1.6355 ± 0.0011 | 1.13 ± 0.019 | 0.684 ± 0.047
CCUGUA | 0.473 ± 0.019 | 1.892 ± 0.015 | 1.89 ± 0.041 | 0.515 ± 0.006
CCUGUG | 0.676 ± 0.039 | 1.97 ± 0.026 | 1.86 ± 0.051 | 0.685 ± 0.086
GCGUAU | 0.549 ± 0.031 | 1.83 ± 0.037 | 1.49 ± 0.046 | 0.824 ± 0.043
GCGUAG | -0.175 ± 0.014 | 1.566 ± 0.0039 | 1.15 ± 0.062 | 0.539 ± 0.027
GCGUAC | -0.0412 ± 0.02 | 1.82 ± 0.069 | 1.33 ± 0.025 | 0.4627 ± 0.0021
GCUCGA | 0.14 ± 0.0058 | 1.92 ± 0.02 | 1.67 ± 0.088 | 0.526 ± 0.025

Variant | FACS-Seq fitted mean (log10) (hypoxanthine [1]) | normalized RNA/DNA level with ligand (log10) (hypoxanthine [2]) | normalized RNA/DNA level without ligand (log10) (hypoxanthine [3]) | FACS-Seq fitted mean (log10) (hypoxanthine [4])
GCUCGG | 0.247 ± 0.027 | 1.88 ± 0.074 | 1.4 ± 0.022 | 0.851 ± 0.056
CCUCGA | 0.268 ± 0.026 | 2 ± 0.011 | 1.87 ± 0.044 | 0.314 ± 0.059
ACUGAC | 0.249 ± 0.034 | 1.95 ± 0.11 | 1.835 ± 0.014 | 0.347 ± 0.1
ACUGAU | 0.247 ± 0.08 | 1.92 ± 0.053 | 1.67 ± 0.026 | 0.431 ± 0.058
ACUGAA | 0.038 ± 0.062 | 1.92 ± 0.079 | 1.737 ± 0.0053 | 0.0938 ± 0.16
ACUGAG | 0.241 ± 0.019 | 1.818 ± 0.015 | 1.37 ± 0.04 | 0.673 ± 0.028
UCGUGC | 0.446 ± 0.039 | 1.953 ± 0.016 | 1.78 ± 0.072 | 0.686 ± 0.013
UCGUGA | 0.414 ± 0.036 | 1.84 ± 0.022 | 1.27 ± 0.039 | 0.578 ± 0.16
UCGUGG | 0.572 ± 0.0094 | 1.9 ± 0.024 | 1.593 ± 0.0033 | 0.819 ± 0.066
UCUGGA | 0.147 ± 0.0055 | 1.85 ± 0.043 | 1.6 ± 0.031 | 0.462 ± 0.029
UCUGGC | 0.393 ± 0.029 | 1.94 ± 0.0059 | 1.87 ± 0.044 | 0.508 ± 0.055
UCUGGG | 0.132 ± 0.074 | 1.97 ± 0.055 | 1.8 ± 0.04 | 0.368 ± 0.054
GCUUAG | 0.401 ± 0.077 | 1.83 ± 0.05 | 1.4 ± 0.025 | 0.791 ± 0.096
GCUUAA | 0.221 ± 0.11 | 1.92 ± 0.047 | 1.79 ± 0.036 | 0.508 ± 0.0091
ACUUCG | 0.592 ± 0.03 | 1.9 ± 0.024 | 1.6 ± 0.1 | 0.766 ± 0.1
ACUAGA | 0.305 ± 0.02 | 1.919 ± 0.0065 | 1.73 ± 0.032 | 0.429 ± 0.0044
ACUAGG | 0.706 ± 0.049 | 1.8318 ± 0.00012 | 1.424 ± 0.009 | 0.657 ± 0.03
GCUUGA | 0.378 ± 0.011 | 1.924 ± 0.018 | 1.817 ± 0.0041 | 0.53 ± 0.017
GCUUGG | -0.174 ± 0.029 | 1.83 ± 0.036 | 1.374 ± 0.0045 | 0.326 ± 0.038
ACGGCG | -0.0504 ± 0.0018 | 1.91 ± 0.025 | 1.42 ± 0.015 | 0.466 ± 0.082
AGAAGG | 0.227 ± 0.0085 | 1.85 ± 0.051 | 1.42 ± 0.044 | 0.463 ± 0.011
AGAAGA | 0.156 ± 0.021 | 1.92 ± 0.029 | 1.525 ± 0.013 | 0.466 ± 0.016
ACUACU | 0.265 ± 0.031 | 1.93 ± 0.069 | 1.821 ± 0.01 | 0.443 ± 0.046
